In publication PMC10328973:

What was measured:
[1] = target: UKNP2.2.1 E2E1-I53-50A trimer; assay: ELISA; conditions: read off a plot
[2] = target: UKNP5.2.1 E2E1-I53-50A trimer; assay: ELISA; conditions: read off a plot
[3] = target: UKNP5.2.1 E2E1-I53-50A trimer (permuted HCV envelope glycoprotein, genotype 5) (hepatitis C virus, strain UKNP5.2.1 (genotype 5))

## gl-HEPC74 F54L
[1]; parent: est. 1.0
  other: AUC: 1.9
[2]; parent: est. 0.010
  other: AUC: 0.03

## gl-AR3C F54L
[1]; parent: est. 2.1
  other: AUC: 18
[2]; parent: est. 0.65
  other: AUC: 4.8

## gl-AR3A F54L; G50R
[1]; parent: est. 0.001
  other: AUC: 0.001
[2]; parent: est. 3.4
  other: AUC: 0.001

## gl-AR3A F54L
[1]; parent: est. 0.001
  other: AUC: 0.001
[2]; parent: est. 3.4
  other: AUC: 1.4

## AR3C (mature bNAb, IgG) (antibody)
[3]
  Supplementary Figure 7b: IC50 of neutralization of UKNP5.2.1 HCVpp (% infectivity, serial dilution of IgG), AR3C IgG: 0.07 µg/mL

## gl-AR3C G50R
[1]; parent: est. 2.1
  other: AUC: 0.001
[2]; parent: est. 0.65
  other: AUC: 0.001

## gl-HEPC74 G50R
[1]; parent: est. 1.0
  other: AUC: 7.4
[2]; parent: est. 0.010
  other: AUC: 0.04

## HEPC3 (mature bNAb, IgG) (antibody)
[3]
  Supplementary Figure 7b: IC50 of neutralization of UKNP5.2.1 HCVpp (% infectivity, serial dilution of IgG), HEPC3 IgG: 0.14 µg/mL

## gl-HEPC74 F54L; G50R
[1]; parent: est. 1.0
  other: AUC: 12
[2]; parent: est. 0.010
  other: AUC: 0.11

## gl-AR3C F54L; G50R
[1]; parent: est. 2.1
  other: AUC: 0.001
[2]; parent: est. 0.65
  other: AUC: 0.001

## gl-AR3A G50R
[1]; parent: est. 0.001
  other: AUC: 0.001
[2]; parent: est. 3.4
  other: AUC: 0.001
